Results as given in US20110076347A1 (BEN GURION UNIVERSITY OF THE NEGEV RESEARCH AND DEVELOPMENT …, published 2011).

T1: human recombinant calbindin D28k (human, UniProt P05937 1-261, limits assumed)
T1 sequence (looked up): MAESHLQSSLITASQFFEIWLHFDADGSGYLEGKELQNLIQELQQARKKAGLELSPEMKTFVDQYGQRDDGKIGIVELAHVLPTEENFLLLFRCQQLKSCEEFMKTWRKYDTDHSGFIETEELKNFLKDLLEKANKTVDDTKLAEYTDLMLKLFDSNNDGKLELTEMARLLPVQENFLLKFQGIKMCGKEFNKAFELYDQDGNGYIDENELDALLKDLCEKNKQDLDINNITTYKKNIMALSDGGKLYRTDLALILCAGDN

B1: Peptide 10 (Lys-Glu-Lys) (peptide)
peptide: KEK
B2: Peptide 9 (Ile-Lys-Glu-Lys-Tyr) (peptide)
peptide: IKEKY
B3: Peptide 2 (Ile-Lys-Ala-Lys-Tyr-Pro) (peptide)
peptide: IKAKYP
B4: Peptide 3 (Ile-Lys-Glu-Ala-Tyr-Pro) (peptide)
peptide: IKEAYP
B5: Peptide 7 (Lys-His-Ile-Lys-Pro-Ser) (peptide)
peptide: KHIKPS
B6: Peptide 5 (Ser-Tyr-Glu-His-Lys-Pro) (peptide)
peptide: SYEHYP
B7: Peptide 4 (Ile-Ala-Glu-Lys-Tyr-Pro) (peptide)
peptide: IAEKYP
B8: Peptide 8 (Ile-Ala-Ala-Ala-Tyr-Pro) (peptide)
peptide: IAAAYP
B9: Peptide 6 (Ile-Ala-Glu-Ala-Tyr-Pro) (peptide)
peptide: IAEAYP
B10: Peptide 1 (Ile-Lys-Glu-Lys-Tyr-Pro) (peptide)
peptide: IKEKYP

Tests used:
[1] = target: human brain inositol monophosphatase (IMPase), in postmortem crude homogenate (human) (UniProt P29218); experiment: cell-based or functional assay
[2] = target: T1, human recombinant calbindin D28k; experiment: cell-based or functional assay

Sequence of human brain inositol monophosphatase (IMPase), in postmortem crude homogenate (human) (P29218 whole entry): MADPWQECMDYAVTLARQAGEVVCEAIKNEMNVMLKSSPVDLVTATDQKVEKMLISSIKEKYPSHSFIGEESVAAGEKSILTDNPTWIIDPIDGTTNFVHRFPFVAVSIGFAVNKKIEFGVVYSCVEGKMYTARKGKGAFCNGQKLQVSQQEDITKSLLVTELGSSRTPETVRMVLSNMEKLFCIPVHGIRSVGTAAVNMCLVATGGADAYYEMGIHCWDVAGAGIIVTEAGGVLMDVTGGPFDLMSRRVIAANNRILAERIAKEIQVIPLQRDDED

Molecule | human brain IMPase activity [1] | % Inhibition of Calbindin Activation [2]
human recombinant calbindin D28k (from UniProt P05937 1-261) | 3 fold | 
B1 |  | 0%
B2 |  | 0%
B3 |  | 100%
B4 |  | 100%
B5 |  | 56%
B6 |  | 56%
B7 |  | 89%
B8 |  | 0%
B9 |  | 0%
B10 |  | 78%
